Biological target: the molecule itself
Test: SDS-PAGE without reducing agent (bands identified by MALDI-MS); 3 ug purified PGLYRP1; Laemmli loading buffer without beta-mercaptoethanol (compared with 5 mM beta-mercaptoethanol); Coomassie stained gel

B1: human recombinant PGLYRP1/Tag-7/PGRP-S with a C-terminal triple DED epitope (natural protein, UniProt O75594 22-196, looked up)
chain: QETEDPACCSPIVPRNEWKALASECAQHLSLPLRYVVVSHTAGSSCNTPASCQQQARNVQHYHMKTLGWCDVGYNFLIGEDGLVYEGRGWNFTGAHSGHLWNPMSIGISFMGNYMDRVPTPQAIRAAQGLLACGVAQGALRSNYVLKGHRDVQRTLSPGNQLYHLIQNWPHYRSP
notes: called full-sized / full-size; On non-reducing SDS-PAGE the preparation is a mix of monomer (~25 kDa) and disulfide-linked homodimer (~60 kDa) of similar intensity; also called recombinant tagged PGLYRP1
stoichiometry N: 2
